This note sets out measurements from patent publication US11920136B2, “Transglutaminase-mediated conjugation” (Tallac Therapeutics, Inc., priority 2020, dated 2024).

The subject of data set [1] is EMT6 mouse mammary carcinoma cells. The data set is described as follows: EMT6 breast cancer model (checkpoint inhibitor refractory), intraperitoneal dosing. The data set is classed as in vivo, BALB/c mice. The following applies: intraperitoneally 2 doses every 3, 5 or 7 days at 10 mg/kg. On the procedure: EMT6 mouse mammary carcinoma cells (ATCC) were cultured in Complete RPMI 1640 (RPMI1640+10% FBS (Gibco)) at 37° C. and 5% CO2. Cells were detached with Trypsin 0.25% (Gibco) and washed twice with RPMI 1640 (Gibco). Cells were resuspended at 20E6/mL in RPMI 1640 and kept on ice until use. 100 uL of suspended cells were subcutaneously implanted into the right flank of 6 week old female BALB/c mice (Charles River). Tumor size was measured and recorded twice a week with calipers starting 3 days post implantation until duration of the study, approximately 35 days later. Tumor volume was calculated using the following formula: (length×width×width)/2. Once tumors reached on average 75 mm^3, approximately 3 days post implantation, mice were randomized by tumor size and treatments were initiated. […] TNT50a conjugates were administered intraperitoneally 2 doses every 3, 5 or 7 days at 10 mg/kg.

For data set [2], the system named is CT26 mouse colon carcinoma cells. The data set is described as follows: CT26 model, anti-PD1 non-responders. The following applies: conjugate intravenously 2 doses every 3 days at 10 mg/kg; anti-PD1 intraperitoneal 10 mg/kg. Type of data set: in vivo, BALB/c mice. On the procedure: 100 uL of suspended cells were subcutaneously implanted into the right flank of 6 week old female BALB/c mice (Charles River).

The subject of data set [3] is EMT6 mouse mammary carcinoma cells. The data set is described as follows: EMT6 breast cancer model, intratumoral administration. Type of data set: in vivo, BALB/c mice. To be noted: intratumorally 2 doses every 3 days at 24 uM. On the procedure:
100 uL of suspended cells were subcutaneously implanted into the right flank of 6 week old female BALB/c mice (Charles River). Tumor size was measured and recorded twice a week with calipers starting 7 days post implantation until duration of the study, approximately 25 days later. Tumor volume was calculated using the following formula: (length×width×width)/2. Once tumors reached on average 180 mm^3, approximately 7 days post implantation, mice were randomized by tumor size and treatments were initiated.

The next data set deals with spleens and tumors. The data set is described as follows: Immunophenotyping of spleen and tumor in syngeneic models (A20, CT26, EMT6). The data set is classed as in vivo, BALB/c mice. To be noted: 1 or 2 doses intraperitoneally every 3 days at 10 mg/kg. As to the method:
Immunophenotyping of multiple syngeneic models administered with TNT50a were conducted. […] A20 B cell lymphoma, CT26 colon carcinoma, EMT6 mouse mammary carcinoma cells (ATCC) were cultured in Complete RPMI 1640 (RPMI1640+10% FBS (Gibco)) at 37° C. and 5% CO2. Cells were detached with Trypsin 0.25% (Gibco) and washed twice with RPMI 1640 (Gibco). Cells were resuspended at 20E6/mL in RPMI 1640 and kept on ice until use. 100 uL of suspended cells were subcutaneously implanted into the right flank of 6 week old female BALB/c mice (Charles River). Tumor size was measured with calipers. Tumor volume was calculated using the following formula: (length×width×width)/2. Once tumors reached on average 200-300 mm^3, mice were randomized by tumor size and treatments were initiated. The conjugates were administered 1 or 2 doses intraperitoneally every 3 days at 10 mg/kg.
Spleens and tumors were harvested either two or three days post-last injection for immunophenotyping. Spleens were processed into single-cell suspension in ice-cold PBS, lysed with ACK lysis buffer (Gibco), washed twice and re-suspended in PBS supplemented with 2% FBS. Tumor-derived single-cell suspensions were prepared using a cocktail of Collagenase A (Roche), Collagenase D (Roche) and DNAse (Roche) for 45 min at 37° C. […]

The test system of another data set is 4T1 cells. The data set is described as follows: 4T1 lung metastatic burden. Type of data set: in vivo, BALB/C mice. The following applies: 10 mg/kg, 3 doses every 3 days; compared to the control.

B1: TNT50a: "an anti-mouse CD22 antibody (SEQ ID NO: 124 and SEQ ID NO: 125) conjugated to mouse CpG 4523 (SEQ ID NO: 121) of DAR1 configuration" (conjugate, listed as Mus musculus)
chain 1: QVQLQQPGAEIVRPGTSVKLSCKASGYTFTDYWMNWVKQRPGQGLEWFGAIDPSDSYTRYNQEFKGKATLTVDTSSTTAYMQLSSLTSEDSAVYFCARSDYTYSFYFDYWGLGTTLTVSS
chain 2: DIVMTQAAFSNPVTLGTSASISCRSSKSLLHSNGITYLYWYLQKPGQSPQLLIYQMSNLASGVPDRFSSSGSGTDFTLRISRVEAEDVGVYYCAQNLELPWTFGGGTKLEIK
DNA: tucgtcgtgacgtt
modifications: antibody-CpG conjugate, DAR1
As for B1, the anti-tumor efficacy result in data set [1] is reported as “showed anti-tumor efficacy in all three dosing regimens”. Also, the “tumor volume in anti-PD1 non responders” value in data set [2] is “tumor volume was reduced”.

B2: CD22 Ab-CpG conjugate: "anti-mouse CD22 antibody (SEQ ID NO: 124 and SEQ ID NO: 125) conjugated to mouse CpG 4523 (SEQ ID NO: 121) with a DAR1 configuration" (conjugate, listed as Mus musculus)
chain 1: B1 chain 1
chain 2: B1 chain 2
DNA: tucgtcgtgacgtt
modifications: antibody-CpG conjugate, DAR1
On to B2, for which the anti-tumor potency entry in data set [3] is on record as “showed anti-tumor potency”. Further, the “immune cell changes in spleen and tumor” value in the data set with spleens and tumors was “promotes B cell differentiation, decrease in Bregs, increase in T cell effector function and modulation of suppressive myeloid cells”. Besides, the “number of metastatic plaques” value with 4T1 cells was “significantly reduced”.
